Measured values: patent US20250109206A1

Assays:
[1] = target: human recombinant CD3 δε heterodimer (human) (UniProt P07766); assay: SPR (Biacore), Fab captured on anti-human Fab chip, human CD3 δε heterodimer as analyte, 1:1 binding fit
[2] = target: human recombinant CD3 δε heterodimer (human) (UniProt P07766); assay: SPR (Biacore 8K), Fab captured, CD3 δε heterodimer as analyte
[3] = target: cynomolgus monkey recombinant CD3 δε heterodimer (cynomolgus) (UniProt Q95LI5); assay: SPR (Biacore), Fab captured on anti-human Fab chip, cyno CD3 δε heterodimer as analyte, 1:1 binding fit
cynomolgus monkey recombinant CD3 δε heterodimer (cynomolgus), sequence (Q95LI5 22-117, stated change not applied, chain 1 of 2): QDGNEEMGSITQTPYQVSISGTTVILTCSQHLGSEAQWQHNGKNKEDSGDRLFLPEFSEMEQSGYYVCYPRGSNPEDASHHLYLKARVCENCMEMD
cynomolgus monkey recombinant CD3 δε heterodimer (cynomolgus), sequence (Q95LI8 22-105, stated change not applied, chain 2 of 2, further chain): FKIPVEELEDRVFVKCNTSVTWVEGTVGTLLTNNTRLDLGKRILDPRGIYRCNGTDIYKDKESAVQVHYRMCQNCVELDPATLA

human recombinant CD3 δε heterodimer (human), sequence (P07766 23-126, stated change not applied, chain 1 of 2): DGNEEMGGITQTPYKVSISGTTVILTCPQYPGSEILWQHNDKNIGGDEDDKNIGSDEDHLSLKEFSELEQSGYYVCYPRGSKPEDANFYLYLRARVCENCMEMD
human recombinant CD3 δε heterodimer (human), sequence (P04234 22-105, stated change not applied, chain 2 of 2, further chain): as the sequence (Q95LI8 22-105, stated change not applied, chain 2 of 2, further chain) above, with V5I, K15N, V20I, T32S, N33D, N34I, A64T, N74S, L83V counted along it

kon [1] | Kd [2] | Kd [3] | koff [3] | kon [3] | Binder
162000 M⁻¹ s⁻¹ | 29 nM | 28.4 nM | 0.00448 s⁻¹ | 158000 M⁻¹ s⁻¹ | Anti-CD3 Fab-001 (Fab, V domains shown) VH: EVQLVESGGGLVQPGGSLRLSCAASGFTFNTYAMNWVRQAPGKGLEWVARIRSKYNNYATYYADSVKDRFTISRDDSQSILYLQMNSLKTEDTAVYYCVRHGNFGNSYVSWFAYWGQGTLVTVSS VL: QAVVTQEPSLTVSPGGTVTLTCRSSTGAVTTSNYANWVQQKPDHLPRALIGGTNKRAPGTPARFSGSLLGDKAALTLSGVQPEDEAEYYCALWYSNLWVFGGGTKLTVL
433000 M⁻¹ s⁻¹ | 46 nM | 71.8 nM | 0.0113 s⁻¹ | 157000 M⁻¹ s⁻¹ | Anti-CD3 Fab-002 (Fab, V domains shown) VH: EVQLVESGGGLVQPGGSLRLSCAASGFTFNTYAMNWVRQAPGKGLEWVGRIRSKYNNYATYYADSVKGRFTISRDDSKNSLYLQMNSLKTEDTAVYYCARHGNFGNSYVSWFAYWGQGTLVTVSS VL: QAVVTQEPSLTVSPGGTVTLTCRSSTGAVTTSNYANWVQQKPDHLPRALIGGTNKRAPGVPARFSGSLLGDKAALTISGAQPEDEAIYYCALWYSNLWVFGGGTKLTVL
